Where no end group is shown, it is not given here. [ ]: non-standard residue; d: D form.
Columns and labels:
[1] = target: T1, human somatostatin receptor subtype 2 (human, UniProt P30874 1-369); assay: radioligand displacement, CHO-K1 membranes expressing human SSTR2; competitor [125I]MK-678
T1 construct: whole, on cells; also called SSTR2; SSTR-2
Method: (§1) Specificity and selectivity of the analogues were determined by Radioligand Binding Assay on CHO-K1 cells stably transfected with each of the SSTR subtypes, as follows.
(§2) Membranes for in vitro receptor binding assays were obtained by homogenizing the CHO-K1 cells expressing the SSTR's subtypes in ice-cold 50 mM Tris-HCl and centrifuging twice at 39000 g (10 min), with an intermediate resuspension in fresh buffer. The final pellets were resuspended in 10 mM Tris-HCl for assay. […] The final assay volume was 0.3 ml. […] The incubations were terminated by rapid filtration through GF/C filters (pre-soaked in 0.3% polyethylenimine) using a Brandel filtration manifold. Each tube and filter were then washed three times with 5 ml aliquots of ice-cold buffer.

[2] = target: T2, human somatostatin receptor subtype 1 (human, UniProt P30872 1-391); assay: radioligand displacement, CHO-K1 membranes expressing human SSTR1; competitor [125I-Tyr11]SS-14
T2 construct: whole, on cells; Membrane preparations of transfected CHO-K1 cells; also called SSTR1; SSTR-1
Method: as §1, §2

[3] = target: T3, human somatostatin receptor subtype 3 (human, UniProt P32745 1-418); assay: radioligand displacement, CHO-K1 membranes expressing human SSTR3; competitor [125I-Tyr11]SS-14
T3 construct: whole, on cells; Membrane preparations of transfected CHO-K1 cells; also called SSTR3; SSTR-3
Method: as §1, §2

[4] = target: T4, human somatostatin receptor subtype 5 (human, UniProt P35346 1-364); assay: radioligand displacement, CHO-K1 membranes expressing human SSTR5; competitor [125I-Tyr11]SS-14
T4 construct: whole, on cells; also called SSTR5; SSTR-5
Method: as §1, §2

[5] = target: T1, human somatostatin receptor subtype 2; assay: cell-based or functional assay
[6] = target: human somatostatin receptor subtype 4 (human) (UniProt P31391); assay: radioligand displacement, CHO-K1 membranes expressing human SSTR4; competitor [125I-Tyr11]SS-14
human somatostatin receptor subtype 4 (human), sequence (P31391 whole entry): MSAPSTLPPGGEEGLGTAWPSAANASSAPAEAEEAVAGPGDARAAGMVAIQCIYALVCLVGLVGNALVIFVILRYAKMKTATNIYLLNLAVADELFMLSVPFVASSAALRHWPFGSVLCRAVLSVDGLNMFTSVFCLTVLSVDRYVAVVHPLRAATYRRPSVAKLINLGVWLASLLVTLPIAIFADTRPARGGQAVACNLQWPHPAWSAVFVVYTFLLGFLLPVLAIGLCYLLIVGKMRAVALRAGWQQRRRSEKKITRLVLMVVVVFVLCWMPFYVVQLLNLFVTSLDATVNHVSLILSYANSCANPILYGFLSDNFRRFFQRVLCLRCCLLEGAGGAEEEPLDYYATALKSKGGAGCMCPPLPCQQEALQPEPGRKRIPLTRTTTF

T4 sequence (P35346 whole entry): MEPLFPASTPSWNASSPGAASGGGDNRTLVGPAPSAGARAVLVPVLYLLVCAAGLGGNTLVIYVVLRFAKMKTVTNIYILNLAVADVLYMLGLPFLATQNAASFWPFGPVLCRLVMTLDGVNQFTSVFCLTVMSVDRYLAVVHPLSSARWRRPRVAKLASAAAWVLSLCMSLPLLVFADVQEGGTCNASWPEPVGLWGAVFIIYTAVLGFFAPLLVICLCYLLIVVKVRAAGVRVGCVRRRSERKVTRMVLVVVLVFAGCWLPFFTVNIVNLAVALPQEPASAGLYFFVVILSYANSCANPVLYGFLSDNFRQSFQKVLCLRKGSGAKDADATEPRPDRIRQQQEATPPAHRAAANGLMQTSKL
T2 sequence (P30872 whole entry): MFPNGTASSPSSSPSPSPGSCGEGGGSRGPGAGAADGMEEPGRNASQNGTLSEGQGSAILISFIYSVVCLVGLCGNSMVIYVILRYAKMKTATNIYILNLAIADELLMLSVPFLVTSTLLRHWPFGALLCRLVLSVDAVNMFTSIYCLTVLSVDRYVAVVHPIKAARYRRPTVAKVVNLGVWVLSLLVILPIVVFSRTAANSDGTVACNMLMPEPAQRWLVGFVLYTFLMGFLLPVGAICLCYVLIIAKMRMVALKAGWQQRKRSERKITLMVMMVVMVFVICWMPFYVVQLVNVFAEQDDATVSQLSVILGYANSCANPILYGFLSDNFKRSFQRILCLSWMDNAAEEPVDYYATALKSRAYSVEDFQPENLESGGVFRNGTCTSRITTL
T1 sequence (P30874 whole entry): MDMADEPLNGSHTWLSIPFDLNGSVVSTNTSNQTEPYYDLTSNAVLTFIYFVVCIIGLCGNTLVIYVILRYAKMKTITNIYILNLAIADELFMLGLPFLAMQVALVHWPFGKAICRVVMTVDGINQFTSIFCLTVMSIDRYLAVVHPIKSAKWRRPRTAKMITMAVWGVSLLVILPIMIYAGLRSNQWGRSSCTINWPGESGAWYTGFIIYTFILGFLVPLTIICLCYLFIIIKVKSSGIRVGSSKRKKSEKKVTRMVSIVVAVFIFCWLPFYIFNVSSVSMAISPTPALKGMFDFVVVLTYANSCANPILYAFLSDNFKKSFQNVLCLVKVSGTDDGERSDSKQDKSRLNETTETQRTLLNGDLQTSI
T3 sequence (P32745 whole entry): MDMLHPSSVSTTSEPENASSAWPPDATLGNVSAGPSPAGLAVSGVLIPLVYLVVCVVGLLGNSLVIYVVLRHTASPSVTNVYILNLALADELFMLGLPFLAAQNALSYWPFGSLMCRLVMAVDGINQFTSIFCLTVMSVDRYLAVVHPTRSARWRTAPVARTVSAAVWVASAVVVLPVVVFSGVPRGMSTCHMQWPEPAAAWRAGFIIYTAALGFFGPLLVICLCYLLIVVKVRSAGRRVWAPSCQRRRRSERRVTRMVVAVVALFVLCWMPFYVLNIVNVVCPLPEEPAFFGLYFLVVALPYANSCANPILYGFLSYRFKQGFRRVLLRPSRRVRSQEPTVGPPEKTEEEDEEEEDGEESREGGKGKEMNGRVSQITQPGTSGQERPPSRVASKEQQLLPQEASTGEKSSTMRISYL

Compound 6: Cpa-cyclo(D-Cys-4-Pal-D-Trp-Lys-Thr-Cys)-Nal-NH2 (peptide)
IC50 [1]: 6.4 nM
IC50 [2]: 2760 nM
IC50 [3]: 44 nM
IC50 [4]: 86.5 nM

Compound 4: 4-(2-Hydroxyethyl)-1-piperazine-2-ethanesulfonyl-D-Phe-cyclo(Cys-Tyr-D-Trp-Lys-Abu-Cys)-Thr-NH2 (peptide)
change of [^3H]thy incorporation in TT cells at 10^-9 M [5]: -13%

Compound 2: cyclo[Tic-Tyr-D-Trp-Lys-Abu-Phe] (peptide)
suppression of [^3H]thy incorporation in TT cells, 10^-9 to 10^-7 M [5]: 23 to 58%
IC50 [6]: 1000 nM
IC50 [1]: 0.34 nM
IC50 [2]: 1000 nM
IC50 [3]: 412 nM
IC50 [4]: 214 nM

Compound 3: 4-(2-Hydroxyethyl)-1-piperazinylacetyl-D-Phe-cyclo(Cys-Tyr-D-Trp-Lys-Abu-Cys)-Thr-NH2 (peptide)
change of [^3H]thy incorporation in TT cells at 10^-9 M [5]: -17%
IC50 [1]: 0.35 nM
IC50 [2]: 5210 nM

B1: Compound 1: D-Nal-cyclo[Cys-Tyr-D-Trp-Lys-Val-Cys]-Thr-NH2 (peptide)
peptide: XCYXKVCT
modifications: not fully specified; D-Nal at position 1; D-Trp at position 4; cyclo (disulfide) Cys2-Cys7; C-terminal amide
notes: also called SSTR2 preferential agonist
IC50 [1]: 0.75 nM
IC50 [2]: 2130 nM
IC50 [3]: 98 nM

B2: Compound 5: D-Phe-Phe-Trp-D-Trp-Lys-Thr-Phe-Thr-NH2 (peptide)
peptide: [dF]FW[dW]KTFT-NH2
notes: also called SSTR5 preferential agonist; SSTR5 selective agonist
IC50 [1]: 166 nM
IC50 [2]: 1150 nM
IC50 [3]: 1000 nM
IC50 [4]: 2.4 nM
